Assays:
[1] = system: mixed culture of cell lines GFG, EPG, TPG and parental Ba/F3; test: Cytokine responses in mixed and individual cell cultures (Example 2); type: cell-based, mouse; settings: mixed culture of four cell lines (each 4×10^3 cells/well), similar in individual cultures, 72 hours, WST-8; listed as hEPO
Method: Mixed culture of the cell lines GFG, EPG, and TPG, which express human G-CSF, EPO, and TPO chimeric receptors, respectively, and their parental cell line Ba/F3 was conducted and their response to various cytokines was examined.
The cells were washed twice with RPMI1640 media containing 2% fetal bovine serum, and then were suspended in RPMI1640 containing 10% fetal bovine serum. The four cell lines were mixed by adjusting each of the cell lines to 4×10^4 cells/mL (16×10^4 cells/mL in total) for the mixed culture, and, for individual cultures, cells were prepared at 4×10^4 cells/mL. 100 μL each of the cells were independently seeded on a 96-well microtiter plate (flat bottom, Falcon). After adding 100 μL/well each of appropriately diluted cytokines, the cultures were cultured for 72 hours in a CO2 incubator (5% CO2 concentration). After the culture, 10 μL/well WST-8 reagent (Cell Count Reagent SF; Nacalai Tesque) was added, and pre-reaction absorbance at a measurement wavelength of 450 nm and a control wavelength of 655 nm was measured using a microplate reader (Model 3550, Bio Rad). The plate was incubated for two hours in a CO2 incubator (CO2 concentration, 5%), and post-reaction absorbance was measured as above. Data were graphed out taking the cytokine concentrations on the horizontal axis and the amount of changes in absorbance after 2-hour incubation on the vertical axis (FIGS. 18, 19, and 20).

[2] = Titer of human EPO and G-CSF prepared from recombinant CHO cells
[3] = target: T1, chimeric LIF receptor (human LIF receptor and human gp130 / mouse G-CSF receptor) in Ba/F3 cell line LIG (Homo sapiens, UniProt P40189+P42702); test: Growth response of chimeric LIF receptor-expressing Ba/F3 cell line LIG (WST-8); type: cell-based; settings: 72 hours culture, WST-8 absorbance
T1 construct: from the 1st to the 833rd amino acid residues; expressed in transfected cells; host or cells: mouse Ba/F3 cells co-transfected with pCV-cLIFR and pCV-cgp130, clone LIG#47 = LIG
T1 sequence (P42702 45-833): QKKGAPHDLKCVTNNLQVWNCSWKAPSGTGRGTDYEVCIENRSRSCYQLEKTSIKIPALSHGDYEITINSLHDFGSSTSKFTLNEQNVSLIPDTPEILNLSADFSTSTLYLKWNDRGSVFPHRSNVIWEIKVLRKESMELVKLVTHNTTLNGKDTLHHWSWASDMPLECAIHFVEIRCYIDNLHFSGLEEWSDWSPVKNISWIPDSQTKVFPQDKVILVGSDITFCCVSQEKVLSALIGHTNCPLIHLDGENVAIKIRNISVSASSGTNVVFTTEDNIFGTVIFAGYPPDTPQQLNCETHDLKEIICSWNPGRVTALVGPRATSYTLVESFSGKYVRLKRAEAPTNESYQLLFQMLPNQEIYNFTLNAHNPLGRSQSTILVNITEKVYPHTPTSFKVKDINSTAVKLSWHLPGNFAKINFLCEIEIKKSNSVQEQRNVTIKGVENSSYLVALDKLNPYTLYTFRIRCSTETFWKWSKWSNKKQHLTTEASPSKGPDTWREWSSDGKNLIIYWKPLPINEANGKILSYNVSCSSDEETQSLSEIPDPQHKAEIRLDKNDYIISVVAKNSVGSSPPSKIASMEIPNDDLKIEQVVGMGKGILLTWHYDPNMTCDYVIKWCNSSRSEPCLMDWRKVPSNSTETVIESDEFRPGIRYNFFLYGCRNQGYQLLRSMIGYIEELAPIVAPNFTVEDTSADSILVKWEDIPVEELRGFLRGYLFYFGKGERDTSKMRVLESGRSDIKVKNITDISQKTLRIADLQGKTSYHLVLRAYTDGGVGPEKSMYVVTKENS
T1 sequence (P40189 23-619): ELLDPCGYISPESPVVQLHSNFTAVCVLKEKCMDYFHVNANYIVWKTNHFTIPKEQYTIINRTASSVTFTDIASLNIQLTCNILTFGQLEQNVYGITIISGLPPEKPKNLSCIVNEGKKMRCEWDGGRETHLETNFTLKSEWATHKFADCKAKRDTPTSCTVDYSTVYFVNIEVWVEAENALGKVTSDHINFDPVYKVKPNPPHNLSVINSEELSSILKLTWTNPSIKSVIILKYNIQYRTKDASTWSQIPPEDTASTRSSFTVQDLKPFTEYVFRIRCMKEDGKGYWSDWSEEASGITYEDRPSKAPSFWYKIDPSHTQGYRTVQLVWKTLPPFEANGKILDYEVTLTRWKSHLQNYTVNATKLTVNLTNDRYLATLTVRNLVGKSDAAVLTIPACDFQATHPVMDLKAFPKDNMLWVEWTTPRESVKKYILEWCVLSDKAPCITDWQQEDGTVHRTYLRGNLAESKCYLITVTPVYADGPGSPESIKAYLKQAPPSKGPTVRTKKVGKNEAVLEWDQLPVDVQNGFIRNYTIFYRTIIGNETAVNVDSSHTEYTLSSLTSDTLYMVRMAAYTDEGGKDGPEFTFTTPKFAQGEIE
T1 sequence (P40223 627-837 partner limits assumed): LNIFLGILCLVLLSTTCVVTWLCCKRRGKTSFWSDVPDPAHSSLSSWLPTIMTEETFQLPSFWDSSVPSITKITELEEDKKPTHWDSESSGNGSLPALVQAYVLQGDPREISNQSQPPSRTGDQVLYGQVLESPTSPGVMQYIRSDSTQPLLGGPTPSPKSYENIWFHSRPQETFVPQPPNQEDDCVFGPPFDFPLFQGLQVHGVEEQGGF
Source text: Chimeric receptor DNAs were constructed by linking cDNA fragments encoding human LIF receptor (from the 1st to the 833rd amino acid residues; Gearing, D P. et al. […] EMBO J., 10, 2839-2848) and human gp130 (from the 1st to the 619th amino acid residues; Hibi, M. et al. (1990) Cell, 63, 1149-1157) with the transmembrane and intracellular domains (from the 602nd to the 813th amino acid residues; Fukunaga, R. et al. (1990) Cell 61, 341-350) of mouse G-CSF receptor, respectively. These constructs were inserted downstream of the HEF1α promoter of the mammalian expression vector pCV to construct chimeric receptors expression vectors, pCV-cLIFR and pCV-cgp130, respectively. pCV-cLIFR and pCV-cgp130 were linearized with Pvu I (Takara Shuzo), respectively, extracted with phenol and chloroform, and purified by ethanol precipitation. […]
(§1) The cells were washed twice with Media A, and were suspended in Media A to give a cell density of 5×10^4 cells/mL. […] After the culture, 10 μL/well WST-8 reagent (Cell Count Reagent SF; Nacalai Tesque) was added, and pre-reaction absorbance at a measurement wavelength of 450 nm and a control wavelength of 655 nm was measured using microplate reader (Model 3550, Bio Rad). The plate was incubated for two hours in a CO2 incubator (CO2 concentration, 5%), and post-reaction absorbance was measured as above. […]

[4] = target: T2, chimeric leptin receptor (human leptin receptor extracellular domain / mouse G-CSF receptor) in Ba/F3 cell line LPG (Homo sapiens, UniProt P48357); test: Growth response of chimeric leptin receptor-expressing Ba/F3 cell line LPG (WST-8); type: cell-based; settings: 72 hours culture, WST-8 absorbance
T2 construct: from the 1st to the 839th amino acid residues; expressed in transfected cells; host or cells: mouse Ba/F3 cells, clone LPG#51 = LPG
T2 sequence (P48357 22-839): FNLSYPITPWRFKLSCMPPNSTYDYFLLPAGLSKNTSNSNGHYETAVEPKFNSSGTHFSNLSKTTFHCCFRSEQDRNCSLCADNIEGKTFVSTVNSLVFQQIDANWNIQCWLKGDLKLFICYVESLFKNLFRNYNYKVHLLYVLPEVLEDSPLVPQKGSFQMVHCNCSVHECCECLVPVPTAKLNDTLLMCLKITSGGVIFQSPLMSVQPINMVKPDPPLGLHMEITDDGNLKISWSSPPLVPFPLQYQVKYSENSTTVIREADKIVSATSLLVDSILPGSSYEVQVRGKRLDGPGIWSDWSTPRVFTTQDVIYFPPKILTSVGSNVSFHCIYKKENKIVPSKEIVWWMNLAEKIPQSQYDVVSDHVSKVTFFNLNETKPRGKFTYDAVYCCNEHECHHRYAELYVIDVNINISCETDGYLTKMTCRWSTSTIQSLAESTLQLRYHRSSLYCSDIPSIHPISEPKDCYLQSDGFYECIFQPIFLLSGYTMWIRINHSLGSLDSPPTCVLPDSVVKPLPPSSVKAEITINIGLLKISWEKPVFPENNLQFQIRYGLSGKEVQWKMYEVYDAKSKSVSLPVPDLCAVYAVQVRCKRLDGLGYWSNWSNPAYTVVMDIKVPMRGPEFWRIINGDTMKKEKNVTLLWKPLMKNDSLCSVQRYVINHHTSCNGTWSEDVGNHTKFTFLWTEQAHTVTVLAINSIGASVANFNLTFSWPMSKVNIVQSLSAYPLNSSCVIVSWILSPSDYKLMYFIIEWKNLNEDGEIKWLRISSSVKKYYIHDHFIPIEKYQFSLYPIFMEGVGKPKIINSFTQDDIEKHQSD
Source text: A chimeric receptor cDNA was constructed by linking cDNA fragments encoding the extracellular domain (from the 1st to the 839th amino acid residues; Tartaglia, L A. et al. (1995) Cell, 83, 1263-1271) of human leptin receptor, and the transmembrane and intracellular domains (from the 602nd to the 813th amino acid residues; Fukunaga, R. et al. (1990) Cell 61, 341-350) of mouse G-CSF receptor. This cDNA was inserted downstream of the HEF1α promoter of the mammalian expression vector pCV to construct chimeric receptor expression vector pCV-cLepR. pCV-cLepR was linearized with Pvu I (Takara Shuzo), extracted with phenol and chloroform, and purified by ethanol precipitation. […]
as §1

## erythropoietin [human EPO]
[1]
  concentration where the response was observed to start: 2 pg/mL
[2]
  titer: 270,000 IU/mg

## human LIF: human leukemia inhibitory factor (Genzyme)
[3]
  concentration at which an evident growth reaction was observed: ≥ 0.4 ng/mL

## human leptin: human leptin (Genzyme)
[4]
  concentration at which an evident growth reaction was observed: ≥ 0.2 ng/mL

— patent US7732133B2, “Screening methods for biologically active ligands” (Chugai Seiyaku Kabushiki Kaisha, priority 2000, dated 2010)
